Assay results reported in patent publication US20030171278A1 (Genentech, published 2003).
Bridges are numbered along the chain shown (N, C = ends). Where no end group is shown, it is not given here.

How the values were obtained:
[1] = target: T1, HER2 extracellular domain (HER2-ECD) (human, UniProt P04626 23-652); assay: direct binding ELISA, immobilized HER2-ECD, streptavidin-HRP detection
T1 construct: extracellular domain; also called immobilized HER2; extracellular domain of Erb2

[2] = target: T1, HER2 extracellular domain (HER2-ECD); assay: competition ELISA, block of 1.1.FI-Zb binding to immobilized HER2-ECD
[3] = target: T2, HER4 (UniProt Q15303 26-651, limits assumed); assay: phage binding assay on immobilized protein
T2 construct: Called 'closely related; HER4'
T2 sequence (looked up): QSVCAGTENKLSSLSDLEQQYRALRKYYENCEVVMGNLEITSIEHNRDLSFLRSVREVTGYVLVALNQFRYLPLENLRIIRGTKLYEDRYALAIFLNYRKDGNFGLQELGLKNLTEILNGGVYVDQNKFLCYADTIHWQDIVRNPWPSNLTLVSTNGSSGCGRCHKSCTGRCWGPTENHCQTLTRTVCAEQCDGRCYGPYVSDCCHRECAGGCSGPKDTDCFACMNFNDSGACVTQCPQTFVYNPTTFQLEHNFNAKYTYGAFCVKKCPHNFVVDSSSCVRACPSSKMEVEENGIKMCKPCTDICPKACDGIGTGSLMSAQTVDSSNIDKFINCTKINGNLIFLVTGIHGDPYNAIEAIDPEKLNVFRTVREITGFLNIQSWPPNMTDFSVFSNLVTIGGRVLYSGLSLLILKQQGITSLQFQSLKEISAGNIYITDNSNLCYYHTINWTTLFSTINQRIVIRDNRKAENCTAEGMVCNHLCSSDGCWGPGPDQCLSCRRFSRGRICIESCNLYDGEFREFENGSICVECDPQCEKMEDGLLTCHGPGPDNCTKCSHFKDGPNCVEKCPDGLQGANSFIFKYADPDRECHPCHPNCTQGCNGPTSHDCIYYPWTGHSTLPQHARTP

[4] = target: T3, HER3 (UniProt P21860 20-643, limits assumed); assay: phage binding assay on immobilized protein
T3 construct: Called 'closely related HER3'

[5] = target: T4, BSA (UniProt P02769 25-607); assay: phage binding assay on immobilized protein
T4 construct: Control coating protein; also called immobilized BSA

[6] = target: T1, HER2 extracellular domain (HER2-ECD); assay: phage binding assay, immobilized HER2-ECD
[7] = target: T1, HER2 extracellular domain (HER2-ECD); assay: phage ELISA, block of 1.1FI phage binding to immobilized HER2-ECD

T3 sequence (P21860 20-643 limits assumed): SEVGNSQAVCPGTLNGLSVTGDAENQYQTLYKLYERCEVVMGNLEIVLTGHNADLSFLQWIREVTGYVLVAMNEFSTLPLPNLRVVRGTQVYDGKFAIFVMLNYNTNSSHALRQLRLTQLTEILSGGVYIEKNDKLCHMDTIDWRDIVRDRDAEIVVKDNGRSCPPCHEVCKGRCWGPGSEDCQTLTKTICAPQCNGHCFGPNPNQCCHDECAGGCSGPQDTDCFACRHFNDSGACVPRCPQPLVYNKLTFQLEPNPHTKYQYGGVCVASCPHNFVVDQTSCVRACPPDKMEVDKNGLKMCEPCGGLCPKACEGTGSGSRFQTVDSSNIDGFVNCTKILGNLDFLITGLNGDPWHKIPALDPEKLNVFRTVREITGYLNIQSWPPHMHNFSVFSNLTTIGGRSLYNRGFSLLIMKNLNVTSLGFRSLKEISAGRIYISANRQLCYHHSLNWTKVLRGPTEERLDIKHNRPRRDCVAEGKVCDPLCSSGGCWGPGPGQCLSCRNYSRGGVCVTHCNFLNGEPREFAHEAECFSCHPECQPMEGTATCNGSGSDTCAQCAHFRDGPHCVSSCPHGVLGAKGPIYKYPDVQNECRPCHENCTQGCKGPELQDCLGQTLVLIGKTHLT
T4 sequence (P02769 25-607 limits assumed): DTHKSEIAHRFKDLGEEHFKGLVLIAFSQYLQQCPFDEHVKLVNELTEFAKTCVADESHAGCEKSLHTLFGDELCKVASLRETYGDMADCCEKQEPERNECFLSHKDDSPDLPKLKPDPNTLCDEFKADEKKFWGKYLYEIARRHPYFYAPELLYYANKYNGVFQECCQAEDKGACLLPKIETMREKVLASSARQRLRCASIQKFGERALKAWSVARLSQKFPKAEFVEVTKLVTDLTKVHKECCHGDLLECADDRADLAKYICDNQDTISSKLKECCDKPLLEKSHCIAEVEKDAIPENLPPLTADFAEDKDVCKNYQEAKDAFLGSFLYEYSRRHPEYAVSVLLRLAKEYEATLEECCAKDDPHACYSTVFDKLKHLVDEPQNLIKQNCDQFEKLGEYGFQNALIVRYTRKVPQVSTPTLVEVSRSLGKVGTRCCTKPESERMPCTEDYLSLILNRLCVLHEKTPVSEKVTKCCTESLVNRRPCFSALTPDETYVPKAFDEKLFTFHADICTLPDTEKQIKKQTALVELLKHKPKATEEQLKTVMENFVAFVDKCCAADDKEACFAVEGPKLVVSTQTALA

B1: 1.1.FI-Zb (biotinylated 1.1.FI-Z) (other)
chain: QVYESWGCIGPGCACLQACL
modifications: not fully specified (C-terminus); cysteine pairing not given here; also: biotinylated with NHS-LC-biotin, sites not given here, fused to Z domain of protein A (not in chain)
Question: With B1 as the binder, how does the EC50 [1] read?
Answer: Its EC50 is 2 nM.

B2: Peptide HER212 (peptide)
peptide: QVYESWGCIGPGCACLQACL
modifications: disulfide 8-13, 15-19
notes: Present only as monomer by mass spectrometry; also called synthetic peptide of clone 1.1.FI
Question: For B2, which IC50 [2] is on record?
Answer: The IC50 was 9000 nM.

B3: Peptide HER201 (peptide)
peptide: YSFEGWGCIGPGCAYLFEGH
modifications: disulfide 8-13 (inferred)
notes: also called synthetic peptide of phage-clone 1.1.2
Question: Which IC50 [2] does the source give for B3 here?
Answer: The IC50 was 300 nM.

B4: phage clone 5.1 (peptide)
peptide: RSCADVASRCWEHCIT
modifications: not fully specified (C-terminus); cysteine pairing not given here; also: displayed on phage as pVIII fusion
notes: also called Pool 5 clone; not shown: linker and phage coat protein pVIII (polyvalent display)
Question: Does B4 bind [3]?
Answer: Result: no binding

Question: Does B4 bind [4]?
Answer: Result: no binding

Question: Does B4 bind [5]?
Answer: Result: no binding

Question: Does B4 bind [6]?
Answer: Result: binds

B5: phage clone 7.1 (peptide)
peptide: CSWVLVQCGGEWWHCCGLGCGLVVNAC
modifications: not fully specified (C-terminus); printed as Cys-Ser-Trp-Val-Leu-Val-Gln-Cys-Gly-Gly-Glu-Trp-Trp-His-Cys-Cys-Gly-Leu-Gly-Cys-Gly-Leu-Val-Val-Asn-Ala-Cys; cysteine pairing not given here; also: displayed on phage as pVIII fusion
notes: also called Pool 7 clone; not shown: linker and phage coat protein pVIII (polyvalent display)
Question: Does B5 bind [3]?
Answer: Result: no binding

Question: Does B5 bind [4]?
Answer: Result: no binding

Question: Does B5 bind [5]?
Answer: Result: no binding

Question: Does B5 bind [6]?
Answer: Result: binds

B6: phage clone 1.1 (peptide)
peptide: YEVEAWDCMGPGCANLFEAH
modifications: not fully specified (C-terminus); cysteine pairing not given here; also: displayed on phage as pVIII fusion
notes: also called Pool 1 clone; not shown: linker and phage coat protein pVIII (polyvalent display)
Question: Does B6 bind [3]?
Answer: Result: no binding

Question: Does B6 bind [4]?
Answer: Result: no binding

Question: Does B6 bind [5]?
Answer: Result: no binding

Question: Does B6 bind [6]?
Answer: Result: binds

B7: (1.1FI)2-Z (other)
chain: QVYESWGCIGPGCACLQACLGGGSGGQVYESWGCIGPGCACLQACL-{Z domain of protein A}
modifications: not fully specified; cysteine pairing not given here; also: fused to Z domain of protein A (not in chain)
notes: also called single chain dimer; 1.1FI repeated twice and fused to the Z domain of protein A
Question: With B7 as the binder, how does the IC50 [2] read?
Answer: The IC50 was 20 nM.

B8: 1.1FI-Fc (Fc fusion)
chain: QVYESWGCIGPGCACLQACLGGGSSG
modifications: not fully specified (C-terminus); cysteine pairing not given here; also: fused through linker to Fc of human IgG1 (not in chain)
notes: also called peptide 1.1.FI fused through a linker to Fc of human IgG1; Her2-Fc expression vector product; not shown: Fc portion of the human IgG1 (700 base pair fragment)
Question: For B8, which IC50 [7] is on record?
Answer: Its IC50 is 3 nM.
